Measured values taken from patent US20060257938A1, “Method of screening for drugs that block ligand binding to a lipid binding protein” (priority 2005, published 2006).

Tests used:
Assay type in all cases: binding
[1] = Probe fluorescence ratio response to palmitic acid relative to ADIFAB2; conditions: response relative to ADIFAB2
Summary of the method: (§1)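 Fluorescently labeled rat intestinal FABP variants were read at two emission wavelengths, near the unbound maximum (about 420 to 480 nm) and the FFA-bound maximum (about 495 to 580 nm). R = Fλ1/Fλ2 after subtracting probe-free intensity; ΔR = R+agent − R0, normalized to ADIFAB2 (rI-FABP-L72A).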

[2] = Probe fluorescence ratio response to oleic acid relative to ADIFAB2; conditions: response relative to ADIFAB2
Summary of the method: as §1

[3] = Probe fluorescence ratio response to arachidonic acid relative to ADIFAB2; conditions: arachidonic acid; response relative to ADIFAB2
Summary of the method: as §1

[4] = Probe fluorescence ratio response to linolenic acid relative to ADIFAB2; conditions: response relative to ADIFAB2
Summary of the method: as §1

[5] = Probe fluorescence ratio response to linoleic acid relative to ADIFAB2; conditions: response relative to ADIFAB2
Summary of the method: as §1

B1: 104N, 72A (protein, listed as Rattus norvegicus)
chain: AFDGTWKVDRNENYEKFMEKMGINVVKRKLGAHDNLKLTITQEGNKFTVKESSNFRNIDVVFELGVDFAYSAADGTELTGTWTMEGNKLVGKFKRVDNGKELINVREISGNELIQTYTYEGVEAKRIFKKE
modifications: PEPTIDE (1)...(131) wild-type rat intestinal fatty acid binding protein
DR/DR PA [1]: 0.406 | DR/DR OA [2]: 0.408 | DR/DR AA [3]: 1.018 | DR/DR LNA [4]: 0.391 | DR/DR LA [5]: 0.385

B2: 31E, 72A (protein, listed as Rattus norvegicus)
chain: AFDGTWKVDRNENYEKFMEKMGINVVKRKLEAHDNLKLTITQEGNKFTVKESSNFRNIDVVFELGVDFAYSAADGTELTGTWTMEGNKLVGKFKRVDNGKELIAVREISGNELIQTYTYEGVEAKRIFKKE
modifications: PEPTIDE (1)...(131) wild-type rat intestinal fatty acid binding protein
DR/DR PA [1]: 0.223 | DR/DR OA [2]: 0.211 | DR/DR AA [3]: 0.238 | DR/DR LNA [4]: 0.522 | DR/DR LA [5]: 0.430

B3: 104S, 72A (protein, listed as Rattus norvegicus)
chain: AFDGTWKVDRNENYEKFMEKMGINVVKRKLGAHDNLKLTITQEGNKFTVKESSNFRNIDVVFELGVDFAYSAADGTELTGTWTMEGNKLVGKFKRVDNGKELISVREISGNELIQTYTYEGVEAKRIFKKE
modifications: PEPTIDE (1)...(131) wild-type rat intestinal fatty acid binding protein
DR/DR PA [1]: 1.570 | DR/DR OA [2]: 1.663 | DR/DR AA [3]: 1.638 | DR/DR LNA [4]: 1.538 | DR/DR LA [5]: 1.715

B4: 38Y 72G 117M (protein, listed as Rattus norvegicus)
chain: AFDGTWKVDRNENYEKFMEKMGINVVKRKLGAHDNLKYTITQEGNKFTVKESSNFRNIDVVFELGVDFAYSGADGTELTGTWTMEGNKLVGKFKRVDNGKELIAVREISGNELIQTMTYEGVEAKRIFKKE
modifications: PEPTIDE (1)...(131) wild-type rat intestinal fatty acid binding protein
DR/DR PA [1]: 0.574 | DR/DR OA [2]: 1.137 | DR/DR AA [3]: 1.541 | DR/DR LNA [4]: 1.228 | DR/DR LA [5]: 1.233

B5: 31T, 72A (protein, listed as Rattus norvegicus)
chain: AFDGTWKVDRNENYEKFMEKMGINVVKRKLTAHDNLKLTITQEGNKFTVKESSNFRNIDVVFELGVDFAYSAADGTELTGTWTMEGNKLVGKFKRVDNGKELIAVREISGNELIQTYTYEGVEAKRIFKKE
modifications: PEPTIDE (1)...(131) wild-type rat intestinal fatty acid binding protein
DR/DR PA [1]: 0.145 | DR/DR OA [2]: −0.024 | DR/DR AA [3]: 0.143 | DR/DR LNA [4]: 0.510 | DR/DR LA [5]: 0.215

B6: 21D, 72A (protein, listed as Rattus norvegicus)
chain: AFDGTWKVDRNENYEKFMEKDGINVVKRKLGAHDNLKLTITQEGNKFTVKESSNFRNIDVVFELGVDFAYSAADGTELTGTWTMEGNKLVGKFKRVDNGKELIAVREISGNELIQTYTYEGVEAKRIFKKE
modifications: PEPTIDE (1)...(131) wild-type rat intestinal fatty acid binding protein
DR/DR PA [1]: 0.707 | DR/DR OA [2]: 1.345 | DR/DR AA [3]: 1.301 | DR/DR LNA [4]: 1.478 | DR/DR LA [5]: 1.562

B7: 62W, 72A (protein, listed as Rattus norvegicus)
chain: AFDGTWKVDRNENYEKFMEKMGINVVKRKLGAHDNLKLTITQEGNKFTVKESSNFRNIDVVWELGVDFAYSAADGTELTGTWTMEGNKLVGKFKRVDNGKELIAVREISGNELIQTYTYEGVEAKRIFKKE
modifications: PEPTIDE (1)...(131) wild-type rat intestinal fatty acid binding protein
DR/DR PA [1]: 1.450 | DR/DR OA [2]: 2.155 | DR/DR AA [3]: 2.206 | DR/DR LNA [4]: 2.120 | DR/DR LA [5]: 2.339

B8: 70Q, 72A (protein, listed as Rattus norvegicus)
chain: AFDGTWKVDRNENYEKFMEKMGINVVKRKLGAHDNLKLTITQEGNKFTVKESSNFRNIDVVFELGVDFAQSAADGTELTGTWTMEGNKLVGKFKRVDNGKELIAVREISGNELIQTYTYEGVEAKRIFKKE
modifications: PEPTIDE (1)...(131) wild-type rat intestinal fatty acid binding protein
DR/DR PA [1]: 0.868 | DR/DR OA [2]: 1.604 | DR/DR AA [3]: 1.546 | DR/DR LNA [4]: 1.622 | DR/DR LA [5]: 1.819

B9: 18L, 72A (protein, listed as Rattus norvegicus)
chain: AFDGTWKVDRNENYEKFLEKMGINVVKRKLGAHDNLKLTITQEGNKFTVKESSNFRNIDVVFELGVDFAYSAADGTELTGTWTMEGNKLVGKFKRVDNGKELIAVREISGNELIQTYTYEGVEAKRIFKKE
modifications: PEPTIDE (1)...(131) wild-type rat intestinal fatty acid binding protein
DR/DR PA [1]: 1.090 | DR/DR OA [2]: 1.551 | DR/DR AA [3]: 1.490 | DR/DR LNA [4]: 1.544 | DR/DR LA [5]: 1.596

B10: 38W, 72A (protein, listed as Rattus norvegicus)
chain: AFDGTWKVDRNENYEKFMEKMGINVVKRKLGAHDNLKWTITQEGNKFTVKESSNFRNIDVVFELGVDFAYSAADGTELTGTWTMEGNKLVGKFKRVDNGKELIAVREISGNELIQTYTYEGVEAKRIFKKE
modifications: PEPTIDE (1)...(131) wild-type rat intestinal fatty acid binding protein
DR/DR PA [1]: 1.552 | DR/DR OA [2]: 1.583 | DR/DR AA [3]: 1.350 | DR/DR LNA [4]: 1.336 | DR/DR LA [5]: 2.413

B11: 31F, 72A (protein, listed as Rattus norvegicus)
chain: AFDGTWKVDRNENYEKFMEKMGINVVKRKLFAHDNLKLTITQEGNKFTVKESSNFRNIDVVFELGVDFAYSAADGTELTGTWTMEGNKLVGKFKRVDNGKELIAVREISGNELIQTYTYEGVEAKRIFKKE
modifications: PEPTIDE (1)...(131) wild-type rat intestinal fatty acid binding protein
DR/DR PA [1]: 1.438 | DR/DR OA [2]: 1.331 | DR/DR AA [3]: 1.210 | DR/DR LNA [4]: 1.647 | DR/DR LA [5]: 1.759

B12: 31R, 72A (protein, listed as Rattus norvegicus)
chain: AFDGTWKVDRNENYEKFMEKMGINVVKRKLRAHDNLKLTITQEGNKFTVKESSNFRNIDVVFELGVDFAYSAADGTELTGTWTMEGNKLVGKFKRVDNGKELIAVREISGNELIQTYTYEGVEAKRIFKKE
modifications: PEPTIDE (1)...(131) wild-type rat intestinal fatty acid binding protein
DR/DR PA [1]: 0.342 | DR/DR OA [2]: 0.227 | DR/DR AA [3]: 0.250 | DR/DR LNA [4]: 0.437 | DR/DR LA [5]: 0.405

B13: 11Q, 72A (protein, listed as Rattus norvegicus)
chain: AFDGTWKVDRQENYEKFMEKMGINVVKRKLGAHDNLKLTITQEGNKFTVKESSNFRNIDVVFELGVDFAYSAADGTELTGTWTMEGNKLVGKFKRVDNGKELIAVREISGNELIQTYTYEGVEAKRIFKKE
modifications: PEPTIDE (1)...(131) wild-type rat intestinal fatty acid binding protein
DR/DR PA [1]: 1.450 | DR/DR OA [2]: 1.716 | DR/DR AA [3]: 1.525 | DR/DR LNA [4]: 1.582 | DR/DR LA [5]: 1.715

B14: 73Y, 72A (protein, listed as Rattus norvegicus)
chain: AFDGTWKVDRNENYEKFMEKMGINVVKRKLGAHDNLKLTITQEGNKFTVKESSNFRNIDVVFELGVDFAYSAYDGTELTGTWTMEGNKLVGKFKRVDNGKELIAVREISGNELIQTYTYEGVEAKRIFKKE
modifications: PEPTIDE (1)...(131) wild-type rat intestinal fatty acid binding protein
DR/DR PA [1]: 0.982 | DR/DR OA [2]: 1.537 | DR/DR AA [3]: 1.529 | DR/DR LNA [4]: 1.603 | DR/DR LA [5]: 1.711

B15: 62Y, 72A (protein, listed as Rattus norvegicus)
chain: AFDGTWKVDRNENYEKFMEKMGINVVKRKLGAHDNLKLTITQEGNKFTVKESSNFRNIDVVYELGVDFAYSAADGTELTGTWTMEGNKLVGKFKRVDNGKELIAVREISGNELIQTYTYEGVEAKRIFKKE
modifications: PEPTIDE (1)...(131) wild-type rat intestinal fatty acid binding protein
DR/DR PA [1]: 1.037 | DR/DR OA [2]: 1.439 | DR/DR AA [3]: 1.598 | DR/DR LNA [4]: 1.395 | DR/DR LA [5]: 1.545

B16: 23V, 72A (protein, listed as Rattus norvegicus)
chain: AFDGTWKVDRNENYEKFMEKMGVNVVKRKLGAHDNLKLTITQEGNKFTVKESSNFRNIDVVFELGVDFAYSAADGTELTGTWTMEGNKLVGKFKRVDNGKELIAVREISGNELIQTYTYEGVEAKRIFKKE
modifications: PEPTIDE (1)...(131) wild-type rat intestinal fatty acid binding protein
DR/DR PA [1]: 1.475 | DR/DR OA [2]: 1.561 | DR/DR AA [3]: 1.464 | DR/DR LNA [4]: 1.351 | DR/DR LA [5]: 1.731

B17: 49I, 72A (protein, listed as Rattus norvegicus)
chain: AFDGTWKVDRNENYEKFMEKMGINVVKRKLGAHDNLKLTITQEGNKFTIKESSNFRNIDVVFELGVDFAYSAADGTELTGTWTMEGNKLVGKFKRVDNGKELIAVREISGNELIQTYTYEGVEAKRIFKKE
modifications: PEPTIDE (1)...(131) wild-type rat intestinal fatty acid binding protein
DR/DR PA [1]: 1.162 | DR/DR OA [2]: 1.804 | DR/DR AA [3]: 1.796 | DR/DR LNA [4]: 1.820 | DR/DR LA [5]: 1.839
